Experimental data from the nanobody polyreactivity screen of Harvey et al. (2022).

Experiment: yeast display, Sf9 membrane polyspecificity reagent, FACS + sequencing; frameworks hold sequencing errors
Summary of the method: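 Polyreactivity labels are assigned by the sorting gate from which each nanobody was recovered. The gates were low and high (top ~1%), set on anti-HA fluorescence for expression and streptavidin fluorescence for reagent binding. Before sorting, galactose-induced (36–48 hours) yeast display cells were stained for 1 hour at 4 °C with 10% biotinylated, detergent-solubilized Sf9 membrane reagent.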

Sequence	polyreactivity (PSR sort gate)
QVQLVESGGGLVQAGGSLRLSCAASGRIIGNYAMGWYRPAPGKERELVARISQSGGSTYYADSVKGRFTISRDHAKNSLYLQMNSLKPEDTAVYYCAKRGRYRYDRDNRYEYWGQGTQVNVSS	low polyreactivity
QVQLVESGGGLVQAGGSLRLSCAASGRIIGVNAMGWYRQAPGKERELVAAISWSGGSTYYADSVKGRFTISRDNAKNTVYLQMNSLKPEDTAVYYCATTYFYARRPRGDYWGQGTQVTVSS	high polyreactivity
QVQLVESGGGLVQAGGSLRLSCAASGRIIGYNAMGWYRQAPGKERELVASIRYSGGSTYYADSVKGRFTISRDNAKNTVYLQMNSLKPEDTAVYYCATRVTYRRRFDYWGQGTQVTVSS	high polyreactivity
QVQLVESGGGLVQAGGSLRLSCAASGRIIKPYAMGWYRQAPGKERELVAAISQSGGRTYYADSVKGRFTISRDNAKNTVYLQMNSLKPEDTAVYYCATRYVSSFGLHAQVWSYYYWGQGTQVTVSS	high polyreactivity
QVQLVESGGGLVQAGGSLRLSCAASGRIINYNVMGWYRQAPRKEMELVAAITRGGSTYYADSVKVRFTISRDNAKNTVYLQMNILKPEDTEVYYCSADTARRPRSYYYWGQGTQVTVSS	low polyreactivity
QVQLVESGGGLVQAGGSLRLSCAASGRIIPYNTMGWYRQAPGKERELVAAISQSDTGTHYADSVKGRFTISRDNAKNTVYLQMNSLKPEDTAVYYCAVDWGYSDDVPYEYWGQGTQVTVSS	low polyreactivity
QVQLVESGGGLVQAGGSLRLSCAASGRIIRGYVMGWYRQAPRKEREMVAITIGAGRTYYADSVKGRFTISRDNAKNTVYLQMNSLIPEDTAVYYCAADTYSTSGYYYWGQGTQVTVSS	low polyreactivity
QVQLVESGGGLVQAGGSLRLSCAASGRIIRKNTMGWYRQAPGKERELVAAIRWSTTSTYYADSVKGRFTISRDNAKNTVYLQMHSLKPEDTAVYYCAARRRDSYGNIYDYWGQGTQVTVSS	high polyreactivity
QVQLVESGGGLVQAGGSLRLSCAASGRIIRWNAMGWYRQAPGKERELVAAITYSSGSTYYADSVKGRFTISRDNAKNTVYLQLNSLKPEDTAVYYCAAYSYGWDYSYDYWGQGTQVNVSS	low polyreactivity
QVQLVESGGGLVQAGGSLRLSCAASGRIISAYAMGWYRQAPGKERELVAAITGSGGSTYYADTVKGRFTISRDNAKKTVYLQMNSRKPEDTAVYYCAAKIDYPDARYFPYRYYYWGQGTQVTVSS	high polyreactivity
QVQLVESGGGLVQAGGSLRLSCAASGRIISRYAMGWYRQAPGKERELVAAISRRGGSTYYADSVKGRFTISRDNAKKTVYLQMNSLKPEDTAVYYCNADTGNRGYDYWGQGTQVTVSS	high polyreactivity
QVQLVESGGGLVQAGGSLRLSCAASGRIISYYAMRWYRQAPGKERELVAAITSAGGTNYADSVKARFTISRDNAKNTVYLQMNSLKPEDTAVYYCAADLYDWPLAWWEYFYWGQGTQVTVSS	low polyreactivity
QVQLVESGGGLVQAGGSLRLSCAASGRIIVDNAMGWYRQAPGKERELVAAITNGGSTSYADSVKGRFTISRDNAKNTVYLQMNSLKPEDTAVYYCNADEDLRGYDYWGQGTQVTVSS	low polyreactivity
QVQLVESGGGLVQAGGSLRLSCAASGRIIVLYAMGWSRQAPGKERELVASIRSGGSTNYADSVKGRFTISRDNAKNTVYLQMNSLKPEETAVYYCAARPDHKRYDYWGQGTQVTVSS	low polyreactivity
QVQLVESGGGLVQAGGSLRLSCAASGRIIYDKAMGWYRQAPGKERELVAAISRSGRTYYADSVKGRFTISRDNAKNTVYLQMNSLKPEDSAVYYCNARTLTVLEFDYWGQGTQVTVSS	low polyreactivity
QVQLVESGGGLVQAGGSLRLSCAASGRIIYENAMGWYRQAPGKEREFVAAITGSGGSTYYADSVKGRFTISRDNAKNTVYLQMISLKPEDTEVYYCAAPLSSYWVYIVRYGYDYWGQGTQVTVSS	low polyreactivity
QVQLVESGGGLVQAGGSLRLSCAASGRIIYGYAMGWYRQEPGKERELVAAITATYYGDSVKGRFTISRDNAKNTVYLQMNSLKPEDTAVYYCNAYLCPKQPLSPPDPTFEGGYWGQCTQVTVSS	low polyreactivity
QVQLVESGGGLVQAGGSLRLSCAASGRIIYNYAMGWYRQAPGKERELVAAITRSGGSTYYADSVKGRFTISRDNAKNTVYLQMNSLKPEDTAVYYCNATRGFGPPYFYWGQGTQVTVSS	high polyreactivity
QVQLVESGGGLVQAGGSLRLSCAASGRIIYPYVMGWYRQAHGKERELVAAITRSGDRTYYADSVKGRFTISRDNAKNTVYLQMNSLKPEDTAVYYCAATNVRGVYYWGQGTQVTVSS	high polyreactivity
QVQLVESGGGLVQAGGSLRLSCAASGRIIYYNAMGWYRQAPGKERDLVARISSGGSTNYADSVKGRFTFSRDNAKNTVYLQMISLKPEDTAGDYCAVAKGGLAWGVGRAGRYDYWGQGTQVTLSS	low polyreactivity

Sequence	polyreactivity (PSR sort gate)
QVQLVESGGGLVQAGGSLRLSCAASGRILDINTMRGYRHPPGKERELVAAITWSGVSTYYADSVKGRFTISRDNAKNTVYLQMNSLKPEDTAVYYCAARPYYTWRYLPTNSGDYWGQGTQETVSS	low polyreactivity
QVQLVESGGGLVQAGGSLRLSCAASGRILDYNAMGWYRPAPGKERELVAAITRRGGSTYYADSVKGRFTISRDNAKNTVYLQMNSLKPEDTAVYYCNARWSTTAHTRFGYWGQGTQVTVSS	low polyreactivity
QVQLVESGGGLVQAGGSLRLSCAASGRILDYNAMGWYRQAPGKERELVAAITYTGGDTYYADSVKGRFTISRDNAKNTVYLQMNSLKPEDTAVYYCSADFGPYYRFDYWGQGTQVTVSS	low polyreactivity
QVQLVESGGGLVQAGGSLRLSCAASGRILFGYAMGWYRQAPGKERELVADITSTGSTNYADSVKGRFTISRDNAKNTVYLQMNSLKPEDTAVYYCNARRESYYQRYRVDYWGQGTQVNVSS	low polyreactivity
QVQLVESGGGLVQAGGSLRLSCAASGRILFRYGMGWYRQAPGKERELVARISWSGGNTHYADSVKGRFTISRDNAKNTVYLQMNSLKPDDTAVYYCNAYYTYWYPRYDYWGQGTQVTVSS	low polyreactivity
QVQLVESGGGLVQAGGSLRLSCAASGRILGDNVMGWYRQAPGKERELVAAISSGSGSTYYADSVKGRFTISRDNAKNTVYLQMNSLKPEDTAVYYCAAGPYIYPRYDYWGQGTQVTVSS	low polyreactivity
QVQLVESGGGLVQAGGSLRLSCAASGRILGDYAMGWYRQAPGKEREFVAASDYNGGSTNYADSVKGRFTISRDNAKNTVYLQMNSLKPEETAVYYCAAPGFPSRNGFGYWGQGTQVTVSS	low polyreactivity
QVQLVESGGGLVQAGGSLRLSCAASGRILGKNAMGWYRQAPRKERELVAAISGRGDRTHYADSVKGRFTISRDNAKNTVYLHMNSLKPEDTAVYYCAKDHHPPAKGQSVSLGYDYWGQGTQVTVSS	low polyreactivity
QVQLVESGGGLVQAGGSLRLSCAASGRILHANAMGWYRQAPGKERELVAAITGRGGSTYYADSVKGRFTISRDNAKITVYLQMNSLKPEDTAVYYCAARVKQAGYRMDYWVQGTQVTVSS	high polyreactivity
QVQLVESGGGLVQAGGSLRLSCAASGRILHGYAMGWYRQAPGKERELVAAITSSGGRTYYADSVKGRFTISRDNAKNTVYLQMNSLKPEDTAVYYCAADRPAYRTGDSKYDYWGQGTQVTVSS	low polyreactivity
QVQLVESGGGLVQAGGSLRLSCAASGRILIRNAMGWYRQAPGKERELVAAINRGGGSTYYADSVKGRFTISRDNAKNTVYLQMNSLKPEDTAVYYCAADRKAGYSRVDGDYWGQGTQVTVSS	low polyreactivity
QVQLVESGGGLVQAGGSLRLSCAASGRILIWYAMGWYRQAPGKERELVAAINWSGSSTSYADSVKGRFTISRDNAKNTVYLQMNSLKPEDTAVYYCAAGRLTTYTPGNRYYYWGQGTQVTVSS	high polyreactivity
QVQLVESGGGLVQAGGSLRLSCAASGRILKYNALGWYRQAPGKERELVAAISYRGGSTYYADSVKGRFTISRDNAKNTVYLQMNSLKPEDTAVYYCNAGGGILNGPLFDYWGQGTQVTVSS	low polyreactivity
QVQLVESGGGLVQAGGSLRLSCAASGRILLHYAMGWYRQAPGKERELVAAITSTGGTTYYADSVKGRFTISRDYAKNTFYLQMNSLKPEDTAVYYCAAKRQDSWGGTYGYWGQGTQVTVSS	low polyreactivity
QVQLVESGGGLVQAGGSLRLSCAASGRILLTYAMGWYRPAPGKERELVAAISSDSRTYYADSVKGRFTISRDNAQNTVYLQMNSLKPEDTAVYYCVRRRYKYDYWGQGTQVTVSS	low polyreactivity
QVQLVESGGGLVQAGGSLRLSCAASGRILLTYAMGWYRQAPGKERELVAAISSDSRTYYADSVKGRFTISRDNAKNTVYLQMNSLKPEDTAVYYCVRRRYKYDYWGQGTQVTVSS	low polyreactivity
QVQLVESGGGLVQAGGSLRLSCAASGRILPLYAMGWYRQAPGKDRELVALIDSGGSTNYADSVKGRFTISRDNAKNTVYLQMNSLKPEDTAVYYCAAVVTAQAYAYFTYGYDYWGQGTQVTVSS	low polyreactivity
QVQLVESGGGLVQAGGSLRLSCAASGRILPLYAMGWYRQAPGKERELVARIDSGGSTNYADSVKGRFTISRDNAKNTVYLQMNSLKPEDTAVYYCAAVVTAQAYAYFTYGYDYWGQGTQVTVSS	low polyreactivity
QVQLVESGGGLVQAGGSLRLSCAASGRILPRNAMGRYRQAPGKEREVVAGIYSDGSTNYADSVKGRFTISRDNAKNTVYLQMKSLKPEETAVYYCAKQFSSYQYFIILISPGDYWGQGTQVTVSS	low polyreactivity
QVQLVESGGGLVQAGGSLRLSCAASGRILPSNAMGWYRQAPGKERELVAGITSGGSTDYADSVKGRFTISRDNAKNTVFLQMNSLKPEDTAVYYCNKPFPYYPDGPNGYDYWGQGTQVTVSS	low polyreactivity
